Molecular target: T1, MUC1 expressed on breast cancer cells (OCUB-M, MCF-7) (human, UniProt P15941 24-1255, native O-glycosylation of the cancer cells, not defined)
T1 construct: whole, on cells; OCUB-M cells were fixed and treated with Triton X-100; MCF-7 cells were fixed with formaldehyde; also called MUC1 expressing cells
Experiment: immunofluorescence staining of fixed OCUB-M breast cancer cells, 10 ug/mL antibody

T1 sequence (P15941 24-1255): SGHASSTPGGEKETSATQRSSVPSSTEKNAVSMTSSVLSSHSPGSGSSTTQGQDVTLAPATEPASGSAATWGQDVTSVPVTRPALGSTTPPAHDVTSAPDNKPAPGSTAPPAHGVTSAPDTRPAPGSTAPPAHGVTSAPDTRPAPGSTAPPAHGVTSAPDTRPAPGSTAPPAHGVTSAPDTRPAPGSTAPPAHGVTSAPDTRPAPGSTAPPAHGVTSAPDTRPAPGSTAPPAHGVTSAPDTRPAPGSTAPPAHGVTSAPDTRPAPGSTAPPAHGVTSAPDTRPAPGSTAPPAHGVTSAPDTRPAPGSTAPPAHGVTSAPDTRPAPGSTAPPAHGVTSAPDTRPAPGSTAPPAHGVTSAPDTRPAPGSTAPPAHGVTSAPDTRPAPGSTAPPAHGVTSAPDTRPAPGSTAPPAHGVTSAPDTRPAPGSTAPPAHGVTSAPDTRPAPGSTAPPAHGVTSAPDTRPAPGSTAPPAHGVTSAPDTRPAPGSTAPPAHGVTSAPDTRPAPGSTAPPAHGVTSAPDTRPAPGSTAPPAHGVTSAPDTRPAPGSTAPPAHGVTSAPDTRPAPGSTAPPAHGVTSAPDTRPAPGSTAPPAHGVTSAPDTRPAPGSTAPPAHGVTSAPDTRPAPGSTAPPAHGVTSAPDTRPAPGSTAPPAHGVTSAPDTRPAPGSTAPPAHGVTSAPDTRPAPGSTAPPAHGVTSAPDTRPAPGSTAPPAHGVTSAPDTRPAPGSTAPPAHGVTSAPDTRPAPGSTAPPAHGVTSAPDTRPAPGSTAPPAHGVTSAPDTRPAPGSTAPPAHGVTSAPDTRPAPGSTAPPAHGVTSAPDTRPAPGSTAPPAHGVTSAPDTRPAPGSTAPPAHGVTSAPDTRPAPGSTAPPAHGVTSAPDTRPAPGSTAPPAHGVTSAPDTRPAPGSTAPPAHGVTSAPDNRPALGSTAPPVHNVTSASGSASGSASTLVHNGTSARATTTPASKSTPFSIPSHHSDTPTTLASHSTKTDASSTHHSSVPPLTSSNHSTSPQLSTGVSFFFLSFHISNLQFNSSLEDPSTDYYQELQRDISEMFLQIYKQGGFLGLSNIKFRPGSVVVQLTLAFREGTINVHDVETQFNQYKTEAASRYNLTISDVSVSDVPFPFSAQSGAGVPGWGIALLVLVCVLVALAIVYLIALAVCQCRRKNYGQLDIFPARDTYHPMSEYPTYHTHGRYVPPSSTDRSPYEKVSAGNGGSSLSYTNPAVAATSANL

B1: Monoclonal antibody SN-101 (antibody, V domains shown)
VH: EVNLEESGGGLVQPGGSMKLSCVASGFTFSNYWMNWVRQSPEKGLEWVAQIRLKSDNYATHYAESVKGRFTISRDDSKSSVYLQMNNLRAEDTGIYYCTGGVFDYWGQGTTLTVSS
VL: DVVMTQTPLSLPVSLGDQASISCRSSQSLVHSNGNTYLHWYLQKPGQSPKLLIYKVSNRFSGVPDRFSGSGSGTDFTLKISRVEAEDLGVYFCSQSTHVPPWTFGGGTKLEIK
notes: Mouse monoclonal antibody from a hybridoma; it was purified on Protein G and detected with anti-mouse IgG; The array assay used culture supernatant diluted 10-fold; also called antibody of hybridoma strain 3A9-4B1 (NITE BP-01845)
binding result: binds

B2: Monoclonal antibody SN-102 (antibody, V domains shown)
VH: EVQLQQSGAELVKPGASVKLSCTASGFNIKDYYMHWVKQRTEQGLEWIGRIDPEDGETKYAPKFQGKAIITADTSSNTAYLQLSSLTSEDTAVYYCVHFYYGYDVGRGYWGQGTTLTVSS
VL: DIVMSQSPSSLAVSVGEKVTMSCKSSQSLLYSSNQKNYLAWYQQKPGQSPKLLIYWASTRESGVPDRFTGSGSGTDFTLTISSVKAEDLAVYYCQQYYSYTFGGGTKLEIK
notes: Mouse monoclonal antibody from a hybridoma; it was purified on Protein G and detected with anti-mouse IgG; The array assay used culture supernatant diluted 10-fold; also called antibody of hybridoma strain 3C10-E11
binding result: binds
